# Test results taken from IntAct's records for PubMed 18547146.
# B1: BH3-interacting domain death agonist (Mus musculus), P70444 (parent)
# chain: MDSEVSNGSGLGAEHITDLLVFGFLQSSGCTRQELEVLGRELPVQAYWEADLEDELQTDGSQASRSFNQGRIEPDSESQEEIIHNIARHLAQIGDEMDHNIQPTLVRQLAAQFMNGSLSEEDKRNCLAKALDEVKTAFPRDMENDKAMLIMTMLLAKKVASHAPSLLRDVFHTTVNFINQNLFSYVRNLVRNEMD
# Variants of: B1
# Conditions: with BCL2L1, Q07817-1
# Sequence of BCL2L1, Q07817-1 (Q07817 whole entry): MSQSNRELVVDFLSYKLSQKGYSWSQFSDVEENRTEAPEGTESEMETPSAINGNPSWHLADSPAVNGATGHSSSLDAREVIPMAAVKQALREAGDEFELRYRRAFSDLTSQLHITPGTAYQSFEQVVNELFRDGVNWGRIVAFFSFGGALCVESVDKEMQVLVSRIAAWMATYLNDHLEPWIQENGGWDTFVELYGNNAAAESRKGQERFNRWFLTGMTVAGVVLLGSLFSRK
row,Variant,effect of a mutation on the interaction
1,MDSEVSNGSGLGAEHITDLLVFGFLQSSGCTRQELEVLGRELPVQAYWEADLEDELQTDGSQASRSFNQGRIEPDSESQEEIIHNIARHLAQIGDEAAHNIQPTLVRQLAAQFMNGSLSEEDKRNCLAKALDEVKTAFPRDMENDKAMLIMTMLLAKKVASHAPSLLRDVFHTTVNFINQNLFSYVRNLVRNEMD [M97A;D98A],disrupting interaction
